According to the supplement of paper PMC9170038:

Test system: MS2 coat protein
Assay: apparent KD of MS2 coat protein; designed switch direction (-1 OFF switch, 1 ON switch): 1; higher = weaker reporter binding
Method in brief: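 RNA switches sharing common flanks were transcribed by stalled E. coli RNA polymerase on Illumina chips. A doubling series of SNAP-549-labelled MS2 coat protein, from 0.7 or 1.5 nM to 3 µM, was applied in Tris-HCl pH 7.5 buffer with KCl, MgCl2, BSA, DTT, tRNA and Tween-20. Each step lasted 0.8–1.5 h at the bottom of the series and 10–20 min at the top. Normalised cluster fluorescence was curve-fitted, giving apparent KD as the per-design median over clusters.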

[1] = Eterna round: R95, input ligand: FMN 200 uM
[2] = Eterna round: R95, input ligand: microRNA oligo, concentration not stated
[3] = Eterna round: R95, input ligand: none
[4] = input ligand: microRNA oligo, concentration not stated

## UUUAGUUGCGGGCAGGAUAUGUAUUAAAAUACAUGAGGAUCACCCAUGUGAGACCGAAAAGGUCUACAGAAGGGCCAAUCGCGAC [Laonerce - 20] (puzzle: Same State 2)
[1]
  apparent KD of MS2 coat protein: 16.1 nM
[2]
  apparent KD of MS2 coat protein: 66 nM
[3]
  apparent KD of MS2 coat protein: 79.5 nM

## UUAGUCAUGUAAGGAUAUGCAGCCGUUUCGGCUGCAGAAGGUACUAUAAUUACAUGAGGAUCACCCAUGUUAUAAAAUUUAUAU [JL SSNG1 1.24] (Eterna round: R96, puzzle: Same State NG 1)
Input ligand: FMN 200 uM
  apparent KD of MS2 coat protein: 19.9 nM
[4]
  apparent KD of MS2 coat protein: 25 nM
Input ligand: none
  apparent KD of MS2 coat protein: 36.6 nM

## AGUCCAGCCUGAGCUGGACAAAAGCAUGUACAUGAGGAUCACCCAUGUUCAUGUACAAGCUUUUUGCUCGAAUUAAA [Mat - hsa-mir-208a - Mod of JL - 53] (puzzle: Sensor for hsa-mir-208a)
[1]
  apparent KD of MS2 coat protein: 558 nM
[2]
  apparent KD of MS2 coat protein: 15.4 nM
[3]
  apparent KD of MS2 coat protein: 822 nM

## AGUCCAGCCUGAGCUGGACAAAAGCAUGUACAUGAGGAUCACCCAUGUUCAUGUACAAGUUUUUUGCUCGUCUUAAA [Zipper 52 - 10] (puzzle: Sensor for hsa-mir-208a)
[1]
  apparent KD of MS2 coat protein: 38.4 nM
[2]
  apparent KD of MS2 coat protein: 11.1 nM
[3]
  apparent KD of MS2 coat protein: 39.6 nM

## AGCUAGUACCGAGGAUAUACGUACAUGAGGAUCACCCAUGUAUACAUGGUUUAAUGAGACUACAUGUAGAAGGCGGUACUAGCA [JL SSNG2 1.25] (Eterna round: R96, puzzle: Same State NG 2)
Input ligand: FMN 200 uM
  apparent KD of MS2 coat protein: 175 nM
[4]
  apparent KD of MS2 coat protein: 532 nM
Input ligand: none
  apparent KD of MS2 coat protein: 636 nM

## CCCUCACAUGAGGAUCACCCAUGUCCUAGCAGGUCAGGAUAUAGCCCGCAUCCGCUGCGGCUAGAAGGGACAGCUG [JR_SS001_Sub610] (Eterna round: R96, puzzle: Same State 1)
Input ligand: FMN 200 uM
  apparent KD of MS2 coat protein: 148 nM
[4]
  apparent KD of MS2 coat protein: 135 nM
Input ligand: none
  apparent KD of MS2 coat protein: 176 nM

## AGUCCAGCCUGAGCUGGACAAAAGCAUGUACAUGAGGAUCACCCAUGUUCAUGUACAAGCUUUUUGCUCGUCUUAAG [salish99_208a_r3_028] (puzzle: Sensor for hsa-mir-208a)
[1]
  apparent KD of MS2 coat protein: 606 nM
[2]
  apparent KD of MS2 coat protein: 16 nM
[3]
  apparent KD of MS2 coat protein: 602 nM

## GCUCGUAUCACAACCAACAUGAGGAUCACCCAUGUAUGUUGGUAGGAUAUCUAUAUUAAGGAUAUAGAGAAGGGCCGAACGAGC [SameState NG3 #12] (Eterna round: R96, puzzle: Same State NG 3)
Input ligand: FMN 200 uM
  apparent KD of MS2 coat protein: 53.7 nM
[4]
  apparent KD of MS2 coat protein: 59.7 nM
Input ligand: none
  apparent KD of MS2 coat protein: 82.3 nM

## AGCUAGUACCGAGGAUAUACAUACAUGAGGAUCACCCAUGUAUACAUGAAAUAUUGAGACUACAUGUAGAAGGCGGUACUAGCA [Mat - Same State NG 2 - JL mod - D44] (Eterna round: R96, puzzle: Same State NG 2)
Input ligand: FMN 200 uM
  apparent KD of MS2 coat protein: 13.6 nM
[4]
  apparent KD of MS2 coat protein: 28.4 nM
Input ligand: none
  apparent KD of MS2 coat protein: 46.4 nM

## GUGGUCAGACAUGAGGAUCACCCAUGUGGAAUAAAUAACACACAGGAUAUCCAAUAUAAAAUAUAGGAGAAGGGUGGAUUGGUG (Eterna round: R96, puzzle: Same State NG 3)
[4]
  apparent KD of MS2 coat protein: 176 nM

## GUGGUCAGACAUGAGGAUCACCCAUGUGGAAUAAAUAACAGACAGGAUAUGUAAUAUAGGAUAUAACAGAAGGGUCGAUUGGUG (Eterna round: R96, puzzle: Same State NG 3)
[4]
  apparent KD of MS2 coat protein: 64.4 nM

## UUGAAGAAUUAAGGAUAUUGAAUACAUAUGUUUAACAUGAGGAUCACCCAUGUGGGUUGCGGUAUCGAGAAGGUAAAAUAAUAG [Mat - Same State NG 2 - JL mod - D4] (Eterna round: R96, puzzle: Same State NG 2)
Input ligand: FMN 200 uM
  apparent KD of MS2 coat protein: 118 nM
[4]
  apparent KD of MS2 coat protein: 91.8 nM
Input ligand: none
  apparent KD of MS2 coat protein: 110 nM

## AACCAACAAAUAAAACAAGCGUGCUCGUCACAUGAGGAUCACCCAUGUUUAAGCGCUGUUCCUACAUCCGCAGCGCC [Inbitiar] (puzzle: Sensor for hsa-mir-208a)
[1]
  apparent KD of MS2 coat protein: 178 nM
[2]
  apparent KD of MS2 coat protein: 32.5 nM
[3]
  apparent KD of MS2 coat protein: 232 nM

## AAUUUAAUACAUGAGGAUCACCCAUGUAAUACUAGUAAGAUCUAGGAUAUCAGCUCGAUUAGAGCUGAGAAGGAGAUCACAUGU [SSNG3/19-C2] (Eterna round: R96, puzzle: Same State NG 3)
[4]
  apparent KD of MS2 coat protein: 82.9 nM

## GGCUAUCGGCGUACCGAUAGCUGGUAUGUACAUGAGGAUCACCCAUGUCAUGUACAGGCUUUUUGCUCGUCUUAUUG [JL-shm-2.39 JL mod] (puzzle: Sensor for hsa-mir-208a)
[1]
  apparent KD of MS2 coat protein: 134 nM
[2]
  apparent KD of MS2 coat protein: 30.3 nM
[3]
  apparent KD of MS2 coat protein: 149 nM

## UAAAUACAUGAGGAUCACCCAUGUCAAAAGACAUGAGGAUAUGUACAGUCUUCGGUCUGUACAGAAGGCAUGAAUA [salish99_ss1_r3_097] (puzzle: Same State 1)
[2]
  apparent KD of MS2 coat protein: 434 nM

## UAUUUAAUCGUAGGAUAUAGAGUGAAAUUUGGACUAGAAGGACGUAACAUGAGGAUCACCCAUGUGGUAAGUGGGACACAGUGU [JR_SSNG1_Sub038] (Eterna round: R96, puzzle: Same State NG 1)
Input ligand: FMN 200 uM
  apparent KD of MS2 coat protein: 150 nM
[4]
  apparent KD of MS2 coat protein: 66.8 nM
Input ligand: none
  apparent KD of MS2 coat protein: 90.5 nM

## CUUUUUAGUGCAGGAUAUGAUCAACAUGAGGAUCACCCAUGUGGCGUUGUGAGUAGGGAGAGUGAUCAGAAGGGCGUCUCCGCG [SS-NG2-LRO11] (Eterna round: R96, puzzle: Same State NG 2)
Input ligand: FMN 200 uM
  apparent KD of MS2 coat protein: 72 nM
[4]
  apparent KD of MS2 coat protein: 36.1 nM
Input ligand: none
  apparent KD of MS2 coat protein: 59.9 nM

## ACAUGAGGAUCACCCAUGUAUAGAUUUGAAUCUUAAGUUACGUAGGAUAUCGUGUUUAGUAUCAUCGAGAAGGACGAUCUGAUA [JR_SSNG3_Sub067] (Eterna round: R96, puzzle: Same State NG 3)
Input ligand: FMN 200 uM
  apparent KD of MS2 coat protein: 19.7 nM
[4]
  apparent KD of MS2 coat protein: 17.2 nM
Input ligand: none
  apparent KD of MS2 coat protein: 26 nM

## CGGGUGGUUCUAGGAUAUCUAGGAUAUGGACGAGGAUUACCCGAGCAGCAUCAGCGCACCAGAGGAGAGAAGGAGAGUCAUGCG [pwkr ssNG2 2F5 2FMN.9] (Eterna round: R96, puzzle: Same State NG 2)
Input ligand: FMN 200 uM
  apparent KD of MS2 coat protein: 105 nM
[4]
  apparent KD of MS2 coat protein: 72.5 nM
Input ligand: none
  apparent KD of MS2 coat protein: 86.8 nM

## AUUGGGUAACGAGGAUAUCGUUUUUGUUUUUUUCGAGAAGGCGUUAUAGUUUCUUUCUAUUGUUACAUGAGGAUCACCCAUGUU [JR_SSNG1_Sub053] (Eterna round: R96, puzzle: Same State NG 1)
Input ligand: FMN 200 uM
  apparent KD of MS2 coat protein: 15.8 nM
[4]
  apparent KD of MS2 coat protein: 16.2 nM
Input ligand: none
  apparent KD of MS2 coat protein: 16.5 nM

## ACCCGCGGGCCACAUGAGGAUCACCCAUGUGACCGGUGAUCCAAGGAUAUACGUGUGAUAGACGCGUAGAAGGUGGCCAAAACU [Rirazaedat] (Eterna round: R96, puzzle: Same State NG 3)
Input ligand: FMN 200 uM
  apparent KD of MS2 coat protein: 127 nM
[4]
  apparent KD of MS2 coat protein: 29.3 nM
Input ligand: none
  apparent KD of MS2 coat protein: 31.9 nM

## GGGCCAGCUUGUGCUGGGCCUUCGCAUGCACAUGAGGAUCACCCAUGUCGUGUACAUGCUUGGUGCCCGUCUUUCCC [Photon Torp-14] (puzzle: Sensor for hsa-mir-208a)
[1]
  apparent KD of MS2 coat protein: 84.5 nM
[2]
  apparent KD of MS2 coat protein: 20.9 nM
[3]
  apparent KD of MS2 coat protein: 85.8 nM

## AACCCGAUGGAAGGAUAUGGCACCUUAUUGGUGCCAGAAGGUCCAAACAUGAGGAUCACCCAUGUGGGCCGGUCGAAAGACCGG [Fiskers NG1ss - 11] (Eterna round: R96, puzzle: Same State NG 1)
Input ligand: FMN 200 uM
  apparent KD of MS2 coat protein: 32.4 nM
[4]
  apparent KD of MS2 coat protein: 53.2 nM
Input ligand: none
  apparent KD of MS2 coat protein: 75.2 nM

## CGAUGAAACUAAGGAAGAAGAGUUGAAGUACAUGAGGAUCACCCAUGUCAGAGCUUUUUGCUCGUCAUGAACAGGAA [JR_SHM208a_Sub005] (puzzle: Sensor for hsa-mir-208a)
[1]
  apparent KD of MS2 coat protein: 51.9 nM
[2]
  apparent KD of MS2 coat protein: 32.2 nM
[3]
  apparent KD of MS2 coat protein: 52.8 nM

## AGCUAUCGCGUACGAUAGCUGAAGCGUGUACAUGAGGAUCACCCAUGUCAUGUGCAAGCUUUUUGCUCGUCUUAUUG [JL-shm-2.29 JL mod] (puzzle: Sensor for hsa-mir-208a)
[1]
  apparent KD of MS2 coat protein: 353 nM
[2]
  apparent KD of MS2 coat protein: 14.8 nM
[3]
  apparent KD of MS2 coat protein: 459 nM

## UACGCGAGAGGAGGAUAUGCAGAGGAUCACCCUGUAGAAGGCCUCAUAAGGAGGAUAUGCAGAGGAUCACCCUGUAGAAGGCCU [pwkr ssNG DX.22] (Eterna round: R96, puzzle: Same State NG 1)
Input ligand: FMN 200 uM
  apparent KD of MS2 coat protein: 345 nM
[4]
  apparent KD of MS2 coat protein: 67.9 nM
Input ligand: none
  apparent KD of MS2 coat protein: 129 nM

## AGUCCAGCAAGAGCUGGACAAAAGCAUGUACAUGAGGAUCACCCAUGUUCAUGUACAAGCUUUUUGCAAGUCAAAAG [Mat - hsa-mir-208a - Mod of JL - 73] (puzzle: Sensor for hsa-mir-208a)
[1]
  apparent KD of MS2 coat protein: 321 nM
[2]
  apparent KD of MS2 coat protein: 23.9 nM
[3]
  apparent KD of MS2 coat protein: 416 nM

## AGUCCAGCCUGAGCUGGACAAAAGCAUGUACAUGAGGAUCACCCAUGUCAUGUACAGGCUUUUUGCUCGUCUUAAUA [Zipper 49 - 7] (puzzle: Sensor for hsa-mir-208a)
[1]
  apparent KD of MS2 coat protein: 433 nM
[2]
  apparent KD of MS2 coat protein: 16.8 nM
[3]
  apparent KD of MS2 coat protein: 583 nM

## GGAAUAUUUACAGGAUAUGAGUUGUAAAGUCGAUCAGAAGGGUAGAUGUCUUACACGGUGUGUUACAUGAGGAUCACCCAUGUU [SameState NG1 #19] (Eterna round: R96, puzzle: Same State NG 1)
Input ligand: FMN 200 uM
  apparent KD of MS2 coat protein: 169 nM
[4]
  apparent KD of MS2 coat protein: 160 nM
Input ligand: none
  apparent KD of MS2 coat protein: 218 nM

## UGUUGUAUUACAGGAUAUCUAGCAUUUUUAUUUAGAGAAGGGUAUUCACAUGAGGAUCACCCAUGUAUAUACGAGGAAGUUGUG [JMF's solution 32] (Eterna round: R96, puzzle: Same State NG 1)
Input ligand: FMN 200 uM
  apparent KD of MS2 coat protein: 54.9 nM
[4]
  apparent KD of MS2 coat protein: 42.1 nM
Input ligand: none
  apparent KD of MS2 coat protein: 51.9 nM
